Source: patent US8399206B2, “Methods for diagnosis, prognosis and methods of treatment” (Nodality, Inc., priority 2008, dated 2013)

Tests used:
[1] = tested on: AML blasts; assay: SCNP / phospho-flow modulated signaling assay, AML study No. 1 (PBMC at diagnosis, CR vs NR); format: cell-based, human; details: Study No. 1 sensitivity analysis
From the text: The present illustrative example represents how to analyze cells in one embodiment of the present invention. There are several steps in the process, such as the stimulation step, the staining step and the flow cytometry step. The stimulation step of the phospho-flow procedure can start with vials of frozen cells and end with cells fixed and permeabilized in methanol. Then the cells can be stained with an antibody directed to a particular protein of interest and then analyzed using a flow cytometer.
Frozen cells are thawed in a 37° C. water bath and gently resuspended in the vial and transferred to the 15 mL conical tube. The 15 mL tube is centrifuged at 930 RPM (200×g) for 8 minutes at room temperature. The supernatant is aspirated and the pellet is gently resuspended in 1 mL media A. The cell suspension is filtered through a 70 um cell strainer into a new 15 mL tube. The cell strainer is rinsed with 1 mL media A and another 12 ml of media A into the 15 mL tube. The cells are mixed into an even suspension. A 20 μL aliquot is immediately removed into a 96-well plate containing 180 μL PBS+4% FBS+CD45 Alexa 700+PI to determine cell count and viability post spin. After the determination, the 15 mL tubes are centrifuged at 930 RPM (200×g) for 8 minutes at room temperature. The supernatant is aspirated and the cell pellet is gently resuspended in 4 mL PBS+4 μL Amine Aqua and incubated for 15 min in a 37° C. incubator. 10 mL RPMI+1% FBS is added to the cell suspension and the tube is inverted to mix the cells. The 15 mL tubes are centrifuged at 930 RPM (200×g) for 8 minutes at room temperature. The cells are resuspended in Media A at the desired cell concentration (1.25×10^6/mL). For samples with low numbers of cells (<18.5×10^6), the cells are resuspended in up to 15 mL media. For samples with high numbers of cells (>18.5×10^6), the volume is raised to 10 mL with media A and the desired volume is transferred to a new 15 mL tube, and the cell concentration is adjusted to 1.25×10^6 cells/ml. 1.6 mL of the above cell suspension (concentration at 1.25×10^6 cells/ml) is transferred into wells of a multi-well plate. From this plate, 80 ul is dispensed into each well of a subsequent plate. The plates are covered with a lid (Nunc) and placed in a 37° C. incubator for 2 hours to rest.
A concentration for each stimulant that is five folds more (5×) than the final concentration is prepared using Media A as diluent. 5× stimuli are arrayed into wells of a standard 96 well v-bottom plate that correspond to the wells on the plate with cells to be stimulated.
Adding the stimulant: The cell plate(s) are taken out of the incubator and placed in a 37° C. water bath next to the pipette apparatus. The cell plate is taken from the water bath and gently swirled to resuspend any settled cells. With pipettor, the stimulant is dispensed into the cell plate and vortexed at “7” for 5 seconds. The deep well plate is put back into the water bath.
Adding Fixative: 200 μl of the fixative solution (final concentration at 1.6%) is dispensed into wells and then mixed on the titer plate shaker on high for 5 seconds. The plate is covered with foil sealer and incubated in a 37° C. water bath for 10 minutes. The plate is spun for 6 minutes at 2000 rpm at room temperature. The cells are aspirated using a 96 well plate aspirator (VP Scientific). The plate is vortexed to resuspend cell pellets in the residual volume. The pellet is ensured to be dispersed before the Methanol step (see cell permeabilization) or clumping will occur.
Cell Permeabilization: Permeability agent, for example methanol, is added slowly and while the plate is vortexing. To do this, the cell plate is placed on titer plate shaker and made sure it is secure. The plate is set to shake using the highest setting. A pipetter is used to add 0.6 mls of 100% methanol to the plate wells. The plate(s) are put on ice until this step has been completed for all plates.

[2] = tested on: AML BMMC leukemic blasts; assay: SCNP modulated signaling assay, AML study No. 2 (BMMC, CR vs NR, clinical sub-groups); format: cell-based, human; details: Study No. 2, all patients
Description: Two independent sets of cryopreserved samples were analyzed sequentially. The first set consisted of 35 peripheral blood mononuclear cell (PBMC) samples derived from AML patients. The second set consisted of 134 cryopreserved bone marrow mononuclear cell (BMMC) samples derived from AML patients. These samples were the same samples used in the previous examples. Sample inclusion criteria required collection prior to initiation of induction chemotherapy, AML classification by the French-American-British (FAB) criteria as M0 through M7 (excluding M3) and availability of clinical annotations.
In the first study, induction chemotherapy consisted of at least one cycle of standard cytarabine-based induction therapy (i.e. daunorubicin 60 mg/m^2×3 days, cytarabine 100-200 mg/m^2 continuous infusion×7 days); responses were measured after one cycle of induction therapy. In the second study, cytarabine (200 mg/m^2 to 3 g/m^2) was used in combination with an anthracycline (daunorubicin or idarubicin) or an additional anti-metabolite (e.g. fludarabine or troxacitabine), and sometimes, an experimental agent (Table 16). […] Standard clinical and laboratory criteria were used for defining complete response (CR) in both studies. […] Classified as “CRp,” these samples were included in the CR group for all primary analysis. The univariate analyses were also repeated with the CRp patients classified into the NR sample group for sensitivity analysis.
Cyropreserved samples were thawed at […], washed and centrifuged in PBS, 10% FBS and 2 mM EDTA. The cells were re-suspended, filtered to remove debris and washed in RPMI cell culture media, 1% FBS, then stained with Live/Dead Fixable Aqua Viability Dye to distinguish non-viable cells. The cells were then re-suspended in RPMI, 1% FBS, aliquoted to 100,000 cells/condition and rested for 1-2 hours at 37° C. prior to SCNP assays. Each condition included two to five phenotypic markers for cell population gating (eg, CD45, CD33), up to three intracellular stains or up to three additional surface markers or control antibodies for an eight-color flow cytometry assay.
Functional assays were performed as previously described. Cells were incubated with modulators (Table 18), at 37° C. for 3-15 minutes, fixed with 1.6% paraformaldehyde (final concentration) for 10 minutes at 37° C., pelleted and permeabilized with 100% ice-cold methanol and stored at −80° C.
Data was acquired using FACS DIVA software on both LSR II and CANTO II Flow Cytometers (BD). For all analyses, dead cells and debris were excluded by forward scatter (FSC), side scatter (SSC), and Amine Aqua Viability Dye measurement. Leukemic cells were identified as cells that lacked the characteristics of mature lymphocytes (CD45^++, CD33^−) and that fit the CD45 and CD33 versus right-angle light-scatter characteristics consistent with myeloid leukemia cells.
The median fluorescence intensity (MFI) was computed for each node from the fluorescence intensity levels for the cells in the myeloid population. The MFI values were then used to compute a variety of metrics by comparing them to baseline or background values, including the unmodulated condition, cellular autofluorescence and antibody isotype controls. The following metrics were computed: • 1. Basal MFI (“Basal”)=log2(MFIUnmodulated Stained)−log2(MFIGated Unstained (Autofluoresence)), designed to measure the basal levels of a certain protein under unmodulated conditions. • 2.

EPO
Mean Value of CRs, p-Stat1 Total Phospho ([1]; CR samples): 0.17 | Mean Value of CRs, p-Stat3 Total Phospho ([1]; CR samples): 0.64 | Mean Value of NRs, p-Stat1 Total Phospho ([1]; NR samples incl. CRp): 0.42 | Mean Value of NRs, p-Stat3 Total Phospho ([1]; NR samples incl. CRp): 1.23

IGF-1
Mean Value of CRs, p-Plcγ2 Total Phospho ([1]; CR samples): 1.82 | Mean Value of CRs, p-CREB Alexa488 Total Phospho ([1]; CR samples, Alexa488 conjugate): 1.11 | Mean Value of CRs, p-CREB PE Total Phospho ([1]; CR samples, PE conjugate): 1.42 | Mean Value of NRs, p-Plcγ2 Total Phospho ([1]; NR samples incl. CRp): 2.76 | Mean Value of NRs, p-CREB Alexa488 Total Phospho ([1]; NR samples incl. CRp, Alexa488 conjugate): 1.62 | Mean Value of NRs, p-CREB PE Total Phospho ([1]; NR samples incl. CRp, PE conjugate): 2.29

B1: IFNg: interferon gamma, cytokine modulator (protein, UniProt P01579 24-161, looked up)
Interferon gamma: QDPYVKEAENLKKYFNAGHSDVADNGTLFLGILKNWKEESDRKIMQSQIVSFYFKLFKNFKDDQSIQKSVETIKEDMNVKFFNSNKKKRDDFEKLTNYSVTDLNVQRKAIHELIQVMAELSPAAKTGKRKRSQMLFRG
Mean Value of CRs, p-Stat1 Fold ([1]; CR samples): 0.45 | Mean Value of CRs, p-Stat1 Total Phospho ([1]; CR samples): 0.67 | Mean Value of CRs, p-Stat3 Total Phospho ([1]; CR samples): 0.68 | Mean Value of CRs, p-Stat5 Total Phospho ([1]; CR samples): 1.62 | Mean Value of NRs, p-Stat1 Total Phospho ([1]; NR samples incl. CRp): 1.27 | Mean Value of NRs, p-Stat3 Total Phospho ([1]; NR samples incl. CRp): 1.3 | Mean Value of NRs, p-Stat5 Total Phospho ([1]; NR samples incl. CRp): 2.35 | Mean Value of NRs, p-Stat1 Fold ([1]; NR samples incl. CRp, negative = down regulation): 0.91 | Mean Value of CRs, p-Stat3 Fold ([2]; CR samples, negative = down regulation): −0.02 | Mean Value of NRs, p-Stat3 Fold ([2]; NR samples): 0.2

B2: M-CSF (protein, UniProt P09603 33-554, looked up)
Macrophage colony-stimulating …: EEVSEYCSHMIGSGHLQSLQRLIDSQMETSCQITFEFVDQEQLKDPVCYLKKAFLLVQDIMEDTMRFRDNTPNAIAIVQLQELSLRLKSCFTKDYEEHDKACVRTFYETPLQLLEKVKNVFNETKNLLDKDWNIFSKNCNNSFAECSSQDVVTKPDCNCLYPKAIPSSDPASVSPHQPLAPSMAPVAGLTWEDSEGTEGSSLLPGEQPLHTVDPGSAKQRPPRSTCQSFEPPETPVVKDSTIGGSPQPRPSVGAFNPGMEDILDSAMGTNWVPEEASGEASEIPVPQGTELSPSRPGGGSMQTEPARPSNFLSASSPLPASAKGQQPADVTGTALPRVGPVRPTGQDWNHTPQKTDHPSALLRDPPEPGSPRISSLRPQGLSNPSTLSAQPQLSRSHSSGSVLPLGELEGRRSTRDRRSPAEPEGGPASEGAARPLPRFNSVPLTDTGHERQSEGSFSPQLQESVFHLLVPSVILVLLAVGGLLFYRWRRRSHQEPQRADSPLEQPEGSPLTQDDRQVELPV
Mean Value of CRs, p-Akt Fold ([1]; CR samples): −0.16 | Mean Value of CRs, p-CREB Total Phospho ([1]; CR samples): 1.26 | Mean Value of CRs, p-Plcγ2 Total Phospho ([1]; CR samples): 1.79 | Mean Value of NRs, p-Akt Fold ([1]; NR samples incl. CRp): 0.05 | Mean Value of NRs, p-CREB Total Phospho ([1]; NR samples incl. CRp): 1.76 | Mean Value of NRs, p-Plcγ2 Total Phospho ([1]; NR samples incl. CRp): 2.8

B3: CD40L (protein, UniProt P29965 113-261, looked up)
CD40 ligand, soluble form: MQKGDQNPQIAAHVISEASSKTTSVLQWAEKGYYTMSNNLVTLENGKQLTVKRQGLYYIYAQVTFCSNREASSQAPFIASLCLKSPGRFERILLRAANTHSSAKPCGQQSIHLGGVFELQPGASVFVNVTDPSQVSHGTGFTSFGLLKL
Mean Value of CRs, p-CREB Total Phospho ([1]; CR samples): 1.37 | Mean Value of CRs, p-Erk Total Phospho ([1]; CR samples): 1.18 | Mean Value of NRs, p-CREB Total Phospho ([1]; NR samples incl. CRp): 2.67 | Mean Value of NRs, p-Erk Total Phospho ([1]; NR samples incl. CRp): 1.62
